In US20250326835A1, “USE OF ANTI-CLAUDIN-1 ANTIBODIES TO TREAT CHOLANGIOCARCINOMA” (Alentis Therapeutics AG, priority 2022, published 2025):

Biological target: T1, human Claudin-1 (CLDN1) on EGI-1 cholangiocarcinoma cells (human, UniProt O95832 1-211)
T1 construct: whole, on cells; Endogenously expressed on human CCA cell lines; also called non-junctional CLDN1
T1 sequence (looked up): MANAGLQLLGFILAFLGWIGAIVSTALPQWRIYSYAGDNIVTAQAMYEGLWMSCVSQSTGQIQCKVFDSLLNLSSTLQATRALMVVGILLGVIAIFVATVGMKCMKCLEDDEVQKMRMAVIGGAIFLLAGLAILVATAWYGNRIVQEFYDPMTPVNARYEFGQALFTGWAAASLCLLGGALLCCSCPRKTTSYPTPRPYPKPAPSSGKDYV
Assay: flow cytometry on EGI-1 cells, 10 µg/ml antibody, Alexa647 secondary, delta-MFI against isotype control
Experimental: A first-line chemotherapy treatment for advanced CCA is cisplatin plus gemcitabine (Borbath et al., 48(7) Eur J Cancer 990-996 (May 2012)). To investigate the expression of CLDN1 upon treatment with cisplatin and gemcitabine, 1.5×10⁵ CCA EGI-1 cells were treated with cisplatin (100 nM) and gemcitabine (10 nM) for 24 hours. Cells were then collected, and CLDN1 expression was assessed by flow cytometry and Western Blot using CLDN1 specific Abs.
For flow cytometry, cells were incubated with the anti-CLDN1 mAb H3L3 or the isotype control mAb at a concentration of 10 μg/ml in triplicates per condition. Following incubation with the primary antibody for 1 hour, cells were washed and incubated with human Alexa647-conjugated secondary antibody at 4° C. for 45 minutes. Cells were subsequently washed and fixed with 2% paraformaldehyde (PFA). Data were acquired using Cytoflex B2R2V0 (Beckman Coulter) and analyzed using CytExpert 2.1 and FlowJo v10 (Beckman Coulter). CLDN1 expression was calculated as the difference of the mean fluorescence intensities of cells stained with anti-CLDN1 mAb H3L3 and isotype control mAb. The experiment was independently repeated three times.

B1: anti-CLDN1 mAb H3L3 (antibody, human IgG1, kappa, V domains shown)
VH: QVQLVESGGGVVQPGRSLRLSCLGSGFSFSSYGMNWVRQAPGKGLEWVASISPSGSYFYYADSVKGRFTISRDNSKNTLYLQMTSLRAEDTAIYYCARLPGFNPPFDHWGQGTLVTVSS
VL: DIQMTQSPSSLSASVGDRVTITCKASQNVGGNVDWYQWKPGKAPKLLIYGASNRYTGVPDRFRGSGSGTDFTLTISSLQPEDVATYYCLQYKNNPWTFGGGTKVEIKR
notes: also called CLDN1-specific mAb H3L3; anti-CLDN1 H3L3 antibody
**Q.** Does B1 bind?
**A.** binds
